{"source": "patent US7262177B2", "about": "“Conjugates of glycosylated/galactosylated peptide, bifunctional linker, and nucleotidic monomers/polymers, and related compositions and methods of use” (priority 2000, dated 2007)", "key": {"[1]": {"assay": "Serum stability of po 1-mer conjugate, HPLC method (b), column 2", "format": "in vitro ADME", "details": "37° C.; for Average Peak area / Trial Peak area: human serum", "protocol": "Studies were carried out at physiological conditions. The analyses were accomplished using reversed-phase HPLC and PAGE methods. The raw data are presented in table format (Tables 1, 2 and 3). The serum half-life calculated is t1/2=1/k (0.693), derived from the [A]=[A0]e^−kt, where [A0] is the original amount of substrate, [A] is the measured substrate level, t is time (min), and k is the first-order rate constant.\n(b) Reaction Conditions: 100 μl of human serum were added to 20 nmoles of HPLc purified po 1-mer Conjugate and incubated at 37° C. for allotted time periods (0 min, 15 min, 60 min, 120 min, 240 min). HPLC gradient: 100% Buffer A (0.05M NaxPO4 (pH 5.8) in 2% CH3CN) for 5 min, then 2% CH3CN to 50% CH3CN over the next 20 min. Column 2: flow 4.7 ml/min, Rainin Semi-Preparative C18 reversed-phase column (10 mm i.d.×250 mm L) (Table 2)."}, "[2]": {"assay": "Stability of 1-mer conjugates in RPMI 1640+10% FCS (PAGE)", "format": "in vitro ADME", "details": "up to 8 hrs, PAGE analysis", "protocol": "Initially, the stability of the two neoglycoconjugates was assessed in RPMI 1640+10% FCS. […] In terms of cellular uptake, the po-linked conjugate at a dose of 1 μM was taken up rapidly in a progressive manner by Hep G2 cells in vitro to the extent of 24.75 pmoles/10^6 cells at 480 min. The rate of cellular uptake was next analyzed with respect to the administered dose of the conjugate. […] This amount doubled within the next 30 min and peaked at 25 pmoles/million cells at 480 min. […] While the administration of 4 μM conjugate led to a linear increase of conjugate uptake with respect to time, the rate at which cellular uptake occurred upon the administration of 8 μM conjugate rose sharply at 120 min."}, "Hep G2 cells": {"tested_on": "Hep G2 cells", "assay": "Cellular uptake of 5FU 1-mer conjugates by Hep G2 cells", "format": "cell-based, human", "protocol": "Hep G2 cells were passaged into 2 cm^2 wells and grown in RPMI 1640 medium, which was supplemented with L-glutamine (10-040, CV) to a density of 0.3×10^6 to 0.4×10^6 cells per well (48-well cluster plate, Costar, Cambridge, Mass.). […] Then, an aliquot of the medium was saved for scintillation counting and the remainder of the medium aspirated from the well. The cells were washed with D-PBS (2×0.5 ml), treated with 0.25% trypsin (37° C., 2 minutes; trypsin prepared in HBSS with 1.0 mM EDTA) and suspended in fresh growth medium containing 10% FCS. The suspended cells were layered over silicon oil (0.5 ml) in a 1.7 ml conical microcentrifuge tube and pelleted by centrifugation at 14,000 rpm (12,000 g) for 30 seconds. The supernatant was carefully decanted and the cell pellet was lysed with 100 μl of a solution containing 0.5% NP 40, 100 mM sodium chloride, 14 mM Tris/HCl and 30% acetonitrile. The amount of radioactivity, and by inference the amount of neoglycoconjugate or oligomer associated with the cell lysate, was determined by scintillation counting."}, "alpha-fetoprotein (AFP)": {"tested_on": "alpha-fetoprotein (AFP)", "assay": "Serum AFP levels in tumor-bearing nude mice", "format": "in vivo, human", "details": "for level of AFP: 15 mg/kg weekly", "from_the_text": "Xenotransplanted tumors have been previously shown to be responsive to 5FU chemotherapy as assayed by direct physical measurement of the tumor (Houghton et al., Biochem. Pharmacol., 36, 1285-1289 (1987)), histological changes and biochemical measurements, such as alpha-fetoprotein (AFP) levels (Lemoine et al., Pathol. Biol. (Paris), 47, 903-910 (1999)) and thymidylate synthase levels (Peters et al., J. Clin Oncol., 12, 2035-2042 (1994)). The xenograft tumors in nude mice are a widely used model for tumor studies that allows for direct measurement of the growth of human tumors. Male CD-1 nude mice (6-8 weeks old, 20-22 g in weight) were used for these bioefficacy studies. An injection of 10^8 Hep G2 cells was made subcutaneously into the subcapsular region of each mouse. Mice were observed daily for tumor formation. After tumors emerged, they were measured twice a week in two dimensions with sliding calipers. When the tumors reached a weight of 100 mg in weight as determined by the formula: [(weight, mg)=(length (mm)×width (mm))^2/2], treatment was initiated (Geran et al., Cancer Chemother. Rep., 3, 51-61 (1972)). Initially, mice were treated with 10 mg/kg dose once/week for 8 weeks. Subsequently, separate cohorts of mice were treated with 15 mg/kg weekly for 8 weeks and finally 10 mg/kg twice weekly for 8 weeks. The impact of treatment upon tumor growth was judged by direct measurement as described above. In addition, tumor progression was tracked by serological measurements, such as AFP levels. AFP levels were assayed weekly following each injection. Blood was taken retro-orbitally from each mouse. AFP levels were assayed immunochemically, using kits supplied by Abbott Laboratories (Waukegan, Ill.) and based on the methods of Wang et al. (Cancer Res., 50, 869s-872s (1990)). Measurements of AFP levels were intended to complement direct physical measurement as an indicator of tumor progression. Generally, serum AFP levels behave as if they reflect tumor mass. […]"}}, "note": "“And” between values parts separate entries of the source, which are not always exact repeats. Identical values can stand only once."}
{"molecule": "CC(=O)N[C@H]1[C@H](OCCCCCCNC(=O)CC[C@H](NC(=O)CC[C@H](NC(=O)[C@H](Cc2ccc(O)cc2)NC(=O)C2CCC(CN3C(=O)CC(SCCCCCCOP(=O)(O)OC[C@H]4O[C@@H](n5cc(F)c(=O)[nH]c5=O)C[C@@H]4O)C3=O)CC2)C(=O)NCCCCCCO[C@@H]2O[C@H](CO)[C@H](O)[C@H](O)[C@H]2NC(C)=O)C(=O)NCCCCCCO[C@@H]2O[C@H](CO)[C@H](O)[C@H](O)[C@H]2NC(C)=O)O[C@H](CO)[C@H](O)[C@@H]1O", "note": "(stereo partly drawn) [po 1-mer, YEE(ahGalNAc)3-SMCC-poFU]", "values": [{"measurement": "Average Peak area", "setting": "[1]; 0 min", "result": 13.57}, {"measurement": "Trial Peak area", "setting": "[1]; 0 min, listed as po 1-mer Conjugate", "result": "13.07 and 12.68 and 14.97"}, {"measurement": "Average Peak area", "setting": "[1]; 15 min", "result": 14.86}, {"measurement": "Trial Peak area", "setting": "[1]; 15 min", "result": 14.86}, {"measurement": "Average Peak area", "setting": "[1]; 60 min", "result": 14.22}, {"measurement": "Trial Peak area", "setting": "[1]; 60 min", "result": 14.22}, {"measurement": "Average Peak area", "setting": "[1]; 120 min", "result": 11.96}, {"measurement": "Trial Peak area", "setting": "[1]; 120 min", "result": 11.96}, {"measurement": "Average Peak area", "setting": "[1]; 240 min", "result": 9.727}, {"measurement": "Trial Peak area", "setting": "[1]; 240 min", "result": 9.727}, {"measurement": "half-life at 200 µM", "setting": "[1]; human, serum, HPLC (b), read-out: serum t1/2", "result": 6.78, "unit": "h"}, {"measurement": "stability in media containing 10% FCS", "setting": "[2]", "result": "stable"}, {"measurement": "cellular uptake", "setting": "Hep G2 cells; 1 μM, 30 min", "result": 5, "unit": "pmoles/million cells"}, {"measurement": "cellular uptake", "setting": "Hep G2 cells; 1 μM, 480 min", "result": 24.75, "unit": "pmoles/10^6 cells"}, {"measurement": "cellular uptake (peak)", "setting": "Hep G2 cells; 1 μM, 480 min", "result": 25, "unit": "pmoles/million cells"}, {"measurement": "cellular uptake", "setting": "Hep G2 cells; 2 μM, 480 min", "result": "about 26 pmole/10^6 cells"}, {"measurement": "maximal cellular uptake", "setting": "Hep G2 cells; 4 μM", "result": 36, "unit": "pmoles/million cells"}, {"measurement": "maximum cellular uptake", "setting": "Hep G2 cells; 4 μM, 480 min", "result": "about 36 pmoles/10^6 cells"}, {"measurement": "maximal cellular uptake", "setting": "Hep G2 cells; 8 μM", "result": 43, "unit": "pmoles/million cells"}, {"measurement": "cellular uptake", "setting": "Hep G2 cells; 8 μM, 120 min", "result": 35, "unit": "pmoles/10^6 cells"}, {"measurement": "maximum cellular uptake", "setting": "Hep G2 cells; 8 μM, 480 min", "result": "~42", "unit": "pmoles/10^6 cells"}, {"measurement": "AFP measurements", "setting": "alpha-fetoprotein (AFP); 10 mg/kg twice weekly, week 6", "result": "below the limits of detection"}, {"measurement": "level of AFP", "setting": "alpha-fetoprotein (AFP); after 3 weeks of treatment", "result": "less than 200 μg/ml"}, {"measurement": "level of AFP", "setting": "alpha-fetoprotein (AFP); week 8", "result": "below the level of detection"}]}
